Test [1] concerns the target T1, synthetic peptide mimicking the IgA1 hinge region, …-NH2 (human).
T1 sequence (peptide, C-terminal amide): VTVPSPVPSTPAR

The target in test [2] is IgA purified from human plasma (human). Put plainly: SEC; Superdex 200 10/300 GL; independent runs of plasma IgA, of inactive IgAse1–7 + E540A and of a preincubated mixture of both. A general note: In gel filtration, larger molecules generally elute earlier.

B1: IgAse1–4 (enzyme)
chain: MASKPDIKVGDYVKMGVYNNASILWRCVSIDNNGPLMLADKIVDTLAYDAKTNDNSNSKSHSRSYKRDDYGSNYWKDSNMRSWLNSTAAEGKVDWLCGNPPKDGYVSGVGAYNEKAGFLNAFSKSEIAAMKTVTQRSLVSHPEYNKGIVDGDANSDLLYYTDISEAVANYDSSYFETTTEKVFLLDVKQANAVWKNLKGYYVAYNNDGMAWPYWLRTPVTDCNHDMRYISSSGQVGRYAPWYSDLGVRPAFYLDSEYFVTTSGSGSQSSPYIGSAPNKQEDDYTISEPAEDANPDWNVSTEQSIQLTLGPWYSNDGKYSNPTIPVYTIQKTRSDTENMVVVVCGEGYTKSQQGKFINDVKRLWQDAMKYEPYRSYADRFNVYALCTASESTFDNGGSTFFDVIVDKYNSPVISNNLHGSQWKNHIFERCIGPEFIEKIHDAHIKKKCDPNTIPSGSEYEPYYYVHDYIAQFAMVVNTKSDFGGAYNNREYGFHYFISPSDSYRASKTFAHEFGHGLLGLGDEYSNGYLLDDKELKSLNLSSVEDPEKIKWRQLLGFRNTYTCRNAYGSKMLVSSYECIMRDTNYQFCEVCRLQGFKRMSQLVKDVDLYVATPEVKEYTGAYSKPSDFTDLETSSYYNYTYNRNDRLLSGNSKSRFNTNMNGKKIELRTVIQNISDKNARQLKFKMWIKHSDGSVATDSSGNPLQTVQTFDIPVWNDKANFWPLGALDHIKSDFNSGLKSCSLIYQIPSDAQLKSGDTVAFQVLDENGNVLADDNTETQRYTTVSIQYKFEDGSEIPNTAGGTFTVPYGTKLDLTPAKTLYDYEFIKVDGLNKPIVSDGTVVTYYYKN
For B1, the cleavage of the hinge peptide after overnight incubation at 37 °C, MALDI-TOF mass spectrometry in test [1] is less than 1%.

B2: IgAse1–7 + E540A (domain or fragment)
chain: MASKPDIKVGDYVKMGVYNNASILWRCVSIDNNGPLMLADKIVDTLAYDAKTNDNSNSKSHSRSYKRDDYGSNYWKDSNMRSWLNSTAAEGKVDWLCGNPPKDGYVSGVGAYNEKAGFLNAFSKSEIAAMKTVTQRSLVSHPEYNKGIVDGDANSDLLYYTDISEAVANYDSSYFETTTEKVFLLDVKQANAVWKNLKGYYVAYNNDGMAWPYWLRTPVTDCNHDMRYISSSGQVGRYAPWYSDLGVRPAFYLDSEYFVTTSGSGSQSSPYIGSAPNKQEDDYTISEPAEDANPDWNVSTEQSIQLTLGPWYSNDGKYSNPTIPVYTIQKTRSDTENMVVVVCGEGYTKSQQGKFINDVKRLWQDAMKYEPYRSYADRFNVYALCTASESTFDNGGSTFFDVIVDKYNSPVISNNLHGSQWKNHIFERCIGPEFIEKIHDAHIKKKCDPNTIPSGSEYEPYYYVHDYIAQFAMVVNTKSDFGGAYNNREYGFHYFISPSDSYRASKTFAHAFGHGLLGLGDEYSNGYLLDDKELKSLNLSSVEDPEKIKWRQLLGFRNTYTCRNAYGSKMLVSSYECIMRDTNYQFCEVCRLQGFKRMSQLVKDVDLYVATPEVKEYTGAYSKPSDFTDLETSSYYNYTYNRNDRLLSGNSKSRFNTNMNGKKIELRTVIQNISDKNARQLKFKMWIKHSDGSVATDSSGNPLQTVQTFDIPVWNDKANFWPLGALDHIKSDFNSGLKSCSLIYQIPSDAQLKSGDTVAFQVLDENGNVLADDNTETQRYTTVSIQYKFEDGSEIPNTAGGTFTVPYGTKLDLTPAKTLYDYEFIKVDGLNKPIVSDGTVVTYYYKNKNEEHTHNLTLVAAKAATCTTAGNSAYYTCDGCDKWFADATGSVEITDKTSVKIPAPGHTAGTEWKSDDTNHWHECTVAGCGVIIESTKSAHTAGEWIVDTPATATTAGTKHKECTVCHRVLETQPIPSTGTELKIIAGDNQIYNKASGSDVTITCNGDFAKFTGIKVDGSVVDSSNYTAVSGSTVLTLKASYLGTLTDGSHTITFVYTDGEANANLTVRTAGSGHIHDYGTEWKSNADNHWHECNCGDKKDEAAHSFKWVVDKEATATKKGSKHEECKICGYKRSAVEI
Broadly, the Kd is the free concentration of one partner at which half of the binding sites on the other are occupied at equilibrium, for simple one-to-one binding. On to B2, for which, in test [2], the Kd is greater than 10 µM.

Source of the values: PMC12237041.
